Among the data in US20240239875A1 (published 2024) are EC50 values, retold here.

What is called EC50 is the concentration giving half of the maximal effect.

Residue numbers refer to the chain shown, from its start.

What all share (assay): ELISA
The target of test [1] is T1, HKU1 spike protein (HCoV-HKU1).
T1 chain: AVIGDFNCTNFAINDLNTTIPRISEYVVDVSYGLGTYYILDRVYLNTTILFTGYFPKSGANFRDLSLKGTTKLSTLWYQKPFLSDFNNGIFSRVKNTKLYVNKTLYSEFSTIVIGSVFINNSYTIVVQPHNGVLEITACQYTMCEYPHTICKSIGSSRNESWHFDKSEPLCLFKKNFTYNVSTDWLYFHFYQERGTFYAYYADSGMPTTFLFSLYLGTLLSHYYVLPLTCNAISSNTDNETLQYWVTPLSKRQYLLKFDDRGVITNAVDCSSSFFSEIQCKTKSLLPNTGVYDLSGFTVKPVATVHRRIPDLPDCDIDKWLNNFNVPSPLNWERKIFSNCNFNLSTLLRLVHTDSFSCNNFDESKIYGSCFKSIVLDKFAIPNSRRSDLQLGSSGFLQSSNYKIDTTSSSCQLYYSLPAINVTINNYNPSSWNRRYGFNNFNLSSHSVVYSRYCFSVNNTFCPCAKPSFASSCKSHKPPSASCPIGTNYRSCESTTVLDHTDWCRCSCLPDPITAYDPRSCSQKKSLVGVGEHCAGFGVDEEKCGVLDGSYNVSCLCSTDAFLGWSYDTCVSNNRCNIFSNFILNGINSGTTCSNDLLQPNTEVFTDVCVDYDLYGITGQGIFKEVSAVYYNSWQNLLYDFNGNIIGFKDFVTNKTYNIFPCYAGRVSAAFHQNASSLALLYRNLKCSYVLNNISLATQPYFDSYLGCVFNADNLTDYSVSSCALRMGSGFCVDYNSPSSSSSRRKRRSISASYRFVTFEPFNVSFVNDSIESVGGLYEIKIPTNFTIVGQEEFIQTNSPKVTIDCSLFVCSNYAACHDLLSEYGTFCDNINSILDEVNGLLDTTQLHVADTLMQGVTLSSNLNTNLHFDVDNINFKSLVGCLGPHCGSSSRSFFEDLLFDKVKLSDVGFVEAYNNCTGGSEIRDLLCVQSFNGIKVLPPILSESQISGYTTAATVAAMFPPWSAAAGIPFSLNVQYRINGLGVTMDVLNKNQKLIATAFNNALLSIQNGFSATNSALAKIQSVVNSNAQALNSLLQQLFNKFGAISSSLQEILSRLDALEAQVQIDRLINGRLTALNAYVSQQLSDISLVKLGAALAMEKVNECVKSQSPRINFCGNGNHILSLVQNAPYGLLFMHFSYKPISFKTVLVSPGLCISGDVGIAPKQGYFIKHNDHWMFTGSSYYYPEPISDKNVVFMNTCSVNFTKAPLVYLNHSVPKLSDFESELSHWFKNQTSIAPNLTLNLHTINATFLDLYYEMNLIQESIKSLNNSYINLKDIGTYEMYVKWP

The target of test [2] is T2, HCoV-OC43 spike protein (HCoV-OC43).
T2 chain: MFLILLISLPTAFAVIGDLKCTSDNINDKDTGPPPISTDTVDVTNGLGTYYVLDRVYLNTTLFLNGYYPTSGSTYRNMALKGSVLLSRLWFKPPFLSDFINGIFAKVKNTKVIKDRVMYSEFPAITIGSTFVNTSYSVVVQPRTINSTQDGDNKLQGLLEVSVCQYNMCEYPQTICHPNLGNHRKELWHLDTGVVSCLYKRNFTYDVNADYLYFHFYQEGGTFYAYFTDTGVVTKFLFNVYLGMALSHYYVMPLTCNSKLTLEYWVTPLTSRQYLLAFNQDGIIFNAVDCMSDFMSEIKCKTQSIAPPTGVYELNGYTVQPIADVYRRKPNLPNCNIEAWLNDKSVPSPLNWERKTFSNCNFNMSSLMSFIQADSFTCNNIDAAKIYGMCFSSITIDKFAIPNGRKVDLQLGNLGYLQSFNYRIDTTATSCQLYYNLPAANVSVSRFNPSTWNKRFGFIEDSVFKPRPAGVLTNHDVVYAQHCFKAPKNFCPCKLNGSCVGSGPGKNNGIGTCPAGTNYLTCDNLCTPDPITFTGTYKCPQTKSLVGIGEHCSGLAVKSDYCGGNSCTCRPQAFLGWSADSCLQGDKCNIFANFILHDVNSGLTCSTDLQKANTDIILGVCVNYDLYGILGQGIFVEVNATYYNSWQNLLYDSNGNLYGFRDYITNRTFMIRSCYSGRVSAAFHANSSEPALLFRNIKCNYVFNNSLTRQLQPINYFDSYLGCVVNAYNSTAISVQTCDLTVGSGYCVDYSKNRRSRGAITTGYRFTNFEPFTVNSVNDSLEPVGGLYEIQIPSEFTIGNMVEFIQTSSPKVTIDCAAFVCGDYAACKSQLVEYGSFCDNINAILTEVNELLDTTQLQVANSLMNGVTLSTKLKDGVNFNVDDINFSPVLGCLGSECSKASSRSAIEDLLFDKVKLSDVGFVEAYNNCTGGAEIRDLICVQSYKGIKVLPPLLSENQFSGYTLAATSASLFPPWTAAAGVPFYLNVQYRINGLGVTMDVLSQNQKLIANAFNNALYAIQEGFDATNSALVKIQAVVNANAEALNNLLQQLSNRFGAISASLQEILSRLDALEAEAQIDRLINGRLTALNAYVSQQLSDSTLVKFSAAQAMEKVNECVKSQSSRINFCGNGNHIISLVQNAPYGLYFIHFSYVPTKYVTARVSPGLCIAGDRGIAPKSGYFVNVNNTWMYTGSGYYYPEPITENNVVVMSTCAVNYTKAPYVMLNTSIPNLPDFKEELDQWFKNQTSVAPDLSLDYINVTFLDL

The target in test [3] is SARS-CoV-2 prefusion stabilized trimer protein (WIV02 isolate spike protein) (UniProt P0DTC2 14-1213).
The target in test [4] is SARS-CoV-2 S2 domain (UniProt P0DTC2 686-1213).

B1: 1-L10-A (antibody, V domains shown)
VH: EVKLEESGGGLVQPGGSMKLSCVASGFTFNNYWMNWVRQSPEKGLEWVAQMRLKSDNYATHYAESVKGRFTISRDDSKSSVYLQMNNLRAEDTGIYYCIEGYWTYWGQGTLVTVSA
VL: QIVLTQSPAIMSASLGERVTMTCTASSSVSSSYLHWYQQKPGSSPKLWIYSTSNLASGVPARFSGNGSGTSYSLTISSMEAEDAATYYCLQYHRSPPYTFGGGTKLEIK
Consider B1, for which the figures for the concentration giving a half-maximal response (EC50) in test [1] and in test [2] were 2730 pM and 770 pM, respectively.

B2: 9-F6-A (antibody, V domains shown)
VH: EVQLQQSGPELVKPGASVKMSCKASGYTFTSYIMHWVKQKPGQGLEWIGYILPYNDGTKYNEKFKGKATLTSDKSSSTAYMELRSLTSEDSAVYYCARWGYSNFLDSWGQGTTLTVSS
VL: DIQMTQTTSSLSASLGDRVTISCRASQDINNYLNWYQQKPDGTVKLLIYYTSRLHSGVPSRFSGSGSGTDYSLTIRNLEQEDIATYFCQQGNTLPPTFGGGTKLEIK
Take B2: the EC50 turned out to be 610 pM in test [1] and 50 pM in test [2].

B3: 1-B11-A (antibody, V domains shown)
VH: QVQLQQSGPELVKPGASVKISCKASGYTFTDHYINWVKQRPGQGLEWIGWIFPGSGSTYYNEQFKGKATLTVDKSSNTAYMLLSSLTSEDSAVYFCARSGGLRLGFAYWGQGTLVTVSA
VL: B2 VL with N30S, R76S, A84S, G91V, P96Y
For the molecule B3, the EC50 was found to be 10300 pM in test [3], 6620 pM in test [4], 820 pM in test [1] and 570 pM in test [2].

B4: 6-O12-A (antibody, V domains shown)
VH: QVQLQQPGTELVKPGASVKLSCKASGYTFTSYWMHWVKQRPGQGLEWIGNINPSNGGTNYNEKFRSKATLTVDKSSSTAYMQLSSLTSEDSAVYYCARLGWFLPLGSWGQGTTLTVSS
VL: QIVLTQSPAIMSASLGEVITLTCSASSSVSYMHWYQQKSGTSPKLLIYSTSNLASGVPSRFSGSGSGTFYSLTISSVEAEDAADYYCHQWSGYMYTFGGGTKLEIK
For B4, the EC50 in test [1] amounted to 410 pM; in test [2], 230 pM.

B5: 2-G20-A (antibody, V domains shown)
VH: EVQLQQSGPELVKPGASVKMSCKASGYTFPSYVLHWVKQKPGQGLEWIGYIYPYNDGTNYNEKFKGKATLTSDKSSSTAYMELSSLTSEDSAVYYCARGDYGDSAWFPYWGQGTLVTVSA
VL: DIVLTQSPASLAVSLGQRATISCRASKSVSTSGYSYMHWYQQKPGQPPKLLIYLASNLKSGVPARFSGGGSGTDFTLNIHPVEEEDAATYYCQLSRELPWTFGGGTKLEIK
For B5, the concentration giving a half-maximal response (EC50) in test [1] came out at 1390 pM; in test [2], 280 pM.

B6: 7-D7-A (antibody, V domains shown)
VH: QVQLKESGPGLVAPSQSLSITCTVSGFSLTSYAISWVRQPPGKGLEWLGVIWPGGGTNYNSALKSRLSISKDNSKSQVFLKMNSLQTDDTAKYYCARTGYYFDYWGQGTTLTVSS
VL: QLILTQSPAIMSASPGEKVTMTCSASLSVNYMYWFQQKPGTSPKRWIHDTSKLASGVPARFSGSGSGTSYSLTISSMEAEDAATYYCQQWSSNPPMYTFGGGTKLEIK
Turning to B6, the EC50 in test [1] was 1300 pM; in test [2], 230 pM.

B7: 8-A17-A (antibody, V domains shown)
VH: B6 VH with I51V, S70N, A91G, K92R, Y101H
VL: B6 VL with L2I, I3V, A25V, L27S, N30S, Y33H, F35Y, P39S, H48Y
As to B7, the 50% effective concentration (EC50) worked out at 370 pM in test [1] and 50 pM in test [2].
